Results from patent US20240293478A1.

Legend:
[1] = molecular target: IL-12 receptor on HEK-Blue IL-12 cells (UniProt P42701); experiment: cell-based or functional assay
[2] = molecular target: recombinant murine CTLA-4-human IgG1 Fc chimera (R&D Systems) (mouse; human) (UniProt P09793); experiment: competitive ELISA; competitor mouse CD86 coated at 100 ng/ml, 10 ng/ml murine CTLA-4-human IgG1 Fc mixed with HEK293T supernatant, anti-human IgG1-HRP
[3] = molecular target: recombinant murine CTLA-4-human IgG1 Fc chimera (R&D Systems) (mouse; human) (UniProt P09793); experiment: competitive ELISA; competitor mouse CD80 coated at 100 ng/ml, 10 ng/ml murine CTLA-4-human IgG1 Fc mixed with HEK293T supernatant, anti-human IgG1-HRP
[4] = molecular target: mouse TGF-β1 (R&D systems) (mouse) (UniProt P04202); experiment: direct ELISA with mouse TGF-β1; concentrated supernatant of transfected HEK293T cells
[5] = molecular target: mouse TGF-β1 (R&D systems) (mouse) (UniProt P04202); experiment: direct ELISA with mouse TGF-β1; supernatant of transfected HEK293T cells

Chain of IL-12 receptor on HEK-Blue IL-12 cells (Q99665 24-862, chain 2 of 2, other chains not shown): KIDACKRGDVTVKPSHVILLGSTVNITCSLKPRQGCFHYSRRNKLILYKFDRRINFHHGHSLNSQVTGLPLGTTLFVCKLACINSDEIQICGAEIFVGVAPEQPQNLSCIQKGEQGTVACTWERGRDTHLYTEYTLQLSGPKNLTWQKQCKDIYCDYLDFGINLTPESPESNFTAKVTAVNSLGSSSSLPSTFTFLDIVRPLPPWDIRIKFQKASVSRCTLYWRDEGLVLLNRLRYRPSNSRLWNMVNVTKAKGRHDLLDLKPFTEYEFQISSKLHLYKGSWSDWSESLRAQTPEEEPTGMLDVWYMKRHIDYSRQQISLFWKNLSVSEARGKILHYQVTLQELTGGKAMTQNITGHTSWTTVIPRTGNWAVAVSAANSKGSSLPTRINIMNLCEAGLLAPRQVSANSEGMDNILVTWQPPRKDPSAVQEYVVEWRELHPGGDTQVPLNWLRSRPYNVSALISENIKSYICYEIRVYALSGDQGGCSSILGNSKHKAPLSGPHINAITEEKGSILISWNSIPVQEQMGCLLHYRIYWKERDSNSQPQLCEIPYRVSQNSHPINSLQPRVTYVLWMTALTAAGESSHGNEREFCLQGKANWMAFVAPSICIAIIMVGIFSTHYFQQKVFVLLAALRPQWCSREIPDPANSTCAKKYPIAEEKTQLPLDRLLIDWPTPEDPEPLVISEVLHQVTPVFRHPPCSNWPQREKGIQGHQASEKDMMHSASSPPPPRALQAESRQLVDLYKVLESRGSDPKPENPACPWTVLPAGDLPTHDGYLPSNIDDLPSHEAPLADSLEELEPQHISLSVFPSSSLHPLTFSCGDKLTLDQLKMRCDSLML
Chain of recombinant murine CTLA-4-human IgG1 Fc chimera (R&D Systems) (mouse; human) (P09793 36-162 limits assumed, change not shown): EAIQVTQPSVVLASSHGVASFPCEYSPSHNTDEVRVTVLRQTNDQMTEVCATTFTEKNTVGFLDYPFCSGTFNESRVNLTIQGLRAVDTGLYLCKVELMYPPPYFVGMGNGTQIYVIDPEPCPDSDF
Chain of mouse TGF-β1 (R&D systems) (mouse) (P04202 279-390 limits assumed): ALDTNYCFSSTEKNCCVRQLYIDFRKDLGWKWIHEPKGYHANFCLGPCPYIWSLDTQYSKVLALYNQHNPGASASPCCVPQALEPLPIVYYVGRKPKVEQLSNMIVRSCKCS

STAT4-SEAP (Absorbance/% GFP); transfected HEK cells co-cultured with HEK-Blue IL-12 cells (Absorbance/% GFP) [1]	Substance	other results
0.117	Mouse membrane bound IL-12p70 (ligand)	
	ipilimumab scFv antibody fragment	% CD86 Blockade Activity [2]: 32.5%; % CD80 Blockade Activity [3]: 7%
0.237	Human membrane bound IL-12p70 (ligand)	
	Soluble mouse TGFβ receptor II Fc (from UniProt Q62312 24-166) (Fc fusion)	Absorbance at 450 nm (absorbance (450 nm)) [4]: 1.52; Absorbance at 450 nm (absorbance (450 nm)) [5]: 1.51
0.11	muIL-12p70 (ligand)	
0.11	huIL-12p70 (ligand)	
